Assay: label from the status in PepcDB records

Sequence	protein production
MADTSCKLKPLCFRFVSTLKSPIAVITVTYSPGKYLASFLDSLPGATSRDTHVVMADNGSVDGVPEQAAASRSNVEFLSTGGNLGYGTAINIAARSLRARREAGEIDGEFFLVSNPDVVFDEDSIDQLLECAKRHPEAGAVGPLIREADGSAYPSARAVPTLANGIGHALLGAVWKSNPWSAAYRDDEDMDTERTAGWLSGSCLLLRWDAFDRVGGFDERYFMYMEDVDLGDRLVRAGFTNVFCPSAQIIHAKGHVAGKNPENMLPAHHESAYRFQADRLAKPWQAPIRLALRIGLKLRAGVAVGVSKMRTKASLEHHHHHH	failed
TPSRVEAFDNSNIHGTDPVSAMVTFLDGKPSKNDYRKYKIKTVEGPDDYATMREVIRRRYWRVLKEGLPMPDLILIDGGKGQIDSAKDVLTNELGLDIPVAGLAKDDKHRTSQLLFGDPLEIVPLERNSQEFYLLQRMQDEVHRFAITFHRQLRSKTGFQSILDGIPG	failed
ISMIGERTNSNGSKAFREAMLSGDWEKCVDIAKQQTRDGAHMLDLCVDYVGRDGTADMATLAALLATSSTLPIMIDSTEPEVIRTGLEHLGGRSIVNSVNFEDGDGPESRYQRIMKLVKQHGAAVVALTIDEEGQARTAEHKVRIAKRLIDDITGSYGLDIKDIVVDCLTFPISTGQEETRRDGIETIEAIRELKKLYPEIHTTLGLSNISFGLNPAARQVLNSVFLNECIEAGLDSAIAHSSKILPMNRIDDRQREVALDMVYDRRTEDYDPLQEFMQL	failed
MDAETAESLKLLKNISLYTETYGCTYNAGDTEKLMEIARNQGCVPASSAEEADAILINTCVVIDKTEQHMYERLDLYAGKLLFVTGCLPPVAADVLRTRYPKIHIIDPALIHSCYMEVGTAHVGTNAVLQIARGCNGHCTYCITRLARGKLVSFSAEDIVRQAKSIVEAGATEIQLTAQDTSSWGLDRNDGLRLPDLLRQLCAIPGNFMIRIGMANPDTLLPILDDFLDALKDPKIFLFLHIPVQSGSDSVLRLMGRRYTSAQYEEICQRARKAFPEIRISTDYIAGFSGETDEDAAKSAEQIRRTRPGKVNITRFSVRPNTPAAKMKKIPEPIKKQRSRELTDAANEVYDANNEALIGHIMTAVVTEVVKAGSVTARDRTYQNIVIMENLEIGTEITVKITGHRRHYLIGERIVP	failed
MEAEEIIGLLKKGDLEKAKDALSKEIDNLSDEELKEILEVAESVAKEKEDIELLKLVVYYYAEFFGIDKLEEFEGIAKEKGYEGLMHLADLYSLLGYPEKALDIYRELLKTDLIKEKEHIGEIYYGIATIHDELQEYDKALEAINEAVKAFKESNNVEKLHQAEVYRAYITFENGDRDKAKEILAGLLPHVTNREIKAQIHLVFKEIFEDEENYEAAIQESLYSLIEGIDTEVFDLAFDGLIDLIWELILEDKFEEIYKSMPMFKVAIPSLKDFFEGVRRIAMYREGKIGREEVSEILMKVKDERLVSILEFLGEAEV	failed
MNVFAFSISGGGSERSYKETEKTSAMTTTHSTKLQPSQAILFKMREDAPPLNLTEEMPPPFPTKANYLIHPVRLEHHHHHH	failed
MNLNDYKGILVFAEQRDGILQNVGLELLGKATELAYEINKQIALKDAGDELADFAGKKEAAIKSVDVAAATLEEDDQELKNKVADIKKNNPDAAKVTALLVGHNIKNLAQDLIKAGADKVLVVDKPELEVYDTEAYAQVLTATINDQKPEIVLFGATTLGRDLAPRVSSRIATGLTADCTKLELLKDKERQLGMTRPAFGGNLMATIVSPDHRPQMATVRPGVMKKLPKSDDRTGEVVEFPVTLDTSKMKVKLLKVVKEGGNKVDISEAKILVSGGRGVGSKQNFELLEDLATEIGGIVSSSRAQVDAGNMPHDRQVGQTGKTVRPEVYFACGISGAIQHVAGMEESEFIIAINKDRFAPIFSVADLGIVGDLHKILPILTEEIKKYKATK	failed
MQDSRPHPHDWNVSTDEAKRIQRRLASEVTERALPDGGETVAGIDVSVRDDTAQAAVSVLRLPELDVVDEATHRCEVPFPYVPGLLSFREMPAVLPALERLHSTPDVFVTDSHGAAHPRRFGLACHLGVLLDAPAIGVAKSILVGAPQGELGPEKGSRVPLVDDGETVGTVLRTRTDVNPVYVSVGHRCTLDGAADLMLDCSPRYKIPEPTRQAHKLSRAEGLEHHHHHH	not failed
MASTNQELASALRMFSRFFDLIHQPLAVINERGEYVYYNQESADLDGYSIERAMGKHMLDVYPGMKETQSTMLSSLKKGVEYIGHYQIYYNARGQAVDYQHTTAPLYASDGGMVGVIEIGRNMSGVRRLQEQVVELNQLLYADHHEKHHAIITENPEMLSNIAKAKRLAASNIPVTIVGETGTGKELFSRLIHQCSKRANKPFIALNCGALPPTLIESTLFGTVRGAYTGAENSQGYLELANGGTLFLDELNAMPIEMQSKLLRFLQDKTFWRLGGQQQLHSDVRIVAAMNEAPVKLIQQERLRADLFYRLSVGMLTLPPLRARPEDIPLLANYFIDKYRNDVPQDIHGLSETARADLLNHAWPGNVRMLENAIVRSMIMQEKDGLLKHIIFEQDELNLGVPETAPENPLPSSPDPQYEGSLEVRVANYERHLIETALDTHQGNIAAAARSLNVSRTTLQYKVQKYAIRFGVVRN	failed
MSQKQEEENPAEETGEEKQDTQEKEGILPERAEEAKLKAKYPSLGQKPGGSDFLMKRLQKGQKYFDSGDYNMAKAKMKNKQLPSAGPDKNLVTGDHIPTPQDLPQRKSSLVTSKLAGGQVE	failed
MNDPVDDDAEPTGNHADGVTVADLIAKVAGSDGATPRRSRRRRAAEPDPEPEFEAQAEPAPKPTPEPEILPVAPEPPASADPTEVLQAIRYDEYPGDHAGEYPGDHPDAAYAGAADPNLDAIFEPAFAPMPFAGVTAAHPDLDSCDTEIIPAVPAADEHADLPDTHRDSWRRRTRPQHAGTDDFDEPHRRHPNRKAMIVGRAAAAMIAALTLVLTGGAWQWQSSKNDSLNKVAALDLGSRDILDPNAQFGDENFLIVGMDSRFGENSQMGAGSTDDADGARSDTIMLVNIPASRERVVAVSFPRDLAITPMKCEPWDPETGTYGPIWDEASGTYGPDEVYTETKLNSAFAFGGPKCLVKVIQKISGLSVNRFMAVDFAGFSKMVDALGGVEVCSTTPLEDYELGTVLANAGRQIVDGHTALNYVRARQVTTEYNGDYGRIKRQQLFLSSLLRSLISKDTFFSLSKLNNVVNMFIADSYVDNIKTKDLVDLGQSVQGVNAGRITFVTIPTTGYADEWGNEQPRMDDVRALFDAIINDDPLPGEKNPDNTPVPGTPESTTNTAQAPQSTSPAPQPAHAAPAPGSAEMVDTVTTEPQQVTVKVSNSTGQSGLAATAAGELEQHGFNVTTPDDYPGPLDATTVFFSPGNEEAAATVASSFSNAAIERVAGLGDVVQVVLGTDFMAVNPPSPSGSAIQVKLVRGTSSTPTQLPEDLSVTNAADATCE	failed
MKAVILAAGRGSRLQALTDERPKALVPFNGVPLLQRAIETLRRCDVSEVGIVAGYRSEMLAPFADTLFYNHRWHSSGIFSSLNCASDWLSAEPCLVSYGDIFYDSTLVSELINHPADIVLGYDPAAVRLWQQRFNDPLPDLENFRLVDGWVSAIGQTATSLEVIQGQYMGLFKVTPAGWQALKKQLQGLTPQARDQTDMTSLLGTLVSEGFPVAGVATHAPWGEIDCPSDVALYERIYPDRLEHHHHHH	failed
ARNGDDCPLGPGRCCRLHTVRASLEDLGWADWVLSPREVQVTMCIGACPSQFRAANMHAQIKTSLHRLKPDTEPAPCCVPASYNPMVLIQKTDTGVSLQTYDDLLAKDCHCI	failed
MSSTSPNLQKAIDLASKAAQEDKAGNYEEALQLYQHAVQYFLHVVKYEAQGDKAKQSIRAKCTEYLDRAEKLKEYLKNKEKKAQKPVKEGQPSPADEKGNDSDG	not failed
MQTINATEIRNNFSYYIDTVVRDKPIAVKRNRDVLLFFSEQIIKDLLQDLKIHAELSKEDGIIIGTIDGFDLVVSGESEQEVIQKLAEDLLEYAQDYMNDFKLFYNAPNRKTHYPYILKVLLSSNIDEVKGYIYAEMV	not failed
MSLSASLGATRFRPDLLSLDDLDEAQLHALLTLAHQLKRGERVANLHGKVLGLVFLKASTRTRVSFTVAMYQLGGQVIDLSPSNTQVGRGEPVRDTARVLGRYVDGLAIRTFAQTELEEYAHYAGIPVINALTDHEHPCQVVADLLTIRENFGRLAGLKLAYVGDGNNVAHSLLLGCAKVGMSIAVATPEGFTPDPAVSARASEIAGRTGAEVQILRDPFEAARGAHILYTDVWTSMGQEAETQHRLQLFEQYQINAALLNCAAAEAIVLHCLPAHRGEEITDEVMEGPRSRIWDEAENRLHAQKAVLAALMGGREGHHHHHH	not failed
MTERSFEGSAYSDYRSSHQKPGYGTDYAETFRSGYYAALWSRIERPLVEGILSPLGGPGRSCLDFACGTGRVAAVAGPLFGEVVGVDVSRSMLACARVPGNVKLVEADLTVAPLSRRFDVVTAFRFFLNAEDTLKRDALSAIHEHLNDGGLLVSNVHMNATSPMGLACRFLNRFQGRVVRSTLSIHAYRQMLVSNGFVVESVIGYGFLPRPGWLLPRLCETLVGPVETICRRAGVPGRFAQNFLVVARKQ	failed
GHMEERVLGMPAVESNMFPLGKQAPPFALTNVIDGNVVRLEDVKSDAATVIMFICNHCPFVKHVQHELVRLANDYMPKGVSFVAINSNDAEQYPEDSPENMKKVAEELGYPFPYLYDETQEVAKAYDAACTPDFYIFDRDLKCVYRGQLDDSRPNNGIPVTGESIRAALDALLEGRPVPEKQKPSIGCSIKWKPSA	not failed
MNARLENLMQWLKEKNVEAAFLTSTPNVFYMTNIHCEPHERLLGMFVFQEKEPILICPKMEEGQARNAGWAHEIIGFTDTDRPWDMIAKAIKDRGINANAVAIEKEHLNVERYEELTKLFPNAAFTSAEEKVRELRLIKDEKELSILREAAKMADYAVEVGVNAIKEDRSELEVLAIIEHELKTEGIHKMSFDTMVLAGANSALPHGIPGANKMKRGDFVLFDLGVIIDGYCSDITRTVAFGDISEEQTRIYNTVLAGQLQAVEACKPGVTLGAIDNAARSVIADAGYGDFFPHRLGHGLGISVHEYPDVKAGNESPLKEGMVFTIEPGIYVPNVGGVRIEDDIYITKDGSEILTKFPKELQFVK	failed
MSLHGKLIQFHKFGNPKDVLQVEYKNIEPLKDNEVFVRMLVRPINPSDLIPITGAYAHRIPLPNIPGYEGVGIVENVGAFVSRELIGKRVLPLRGEGTWQEYVKTSADFVVPIPDSIDDFTAAQMYINPLTAWVTCTETLNLQRNDVLLVNACGSAIGHLFAQLSQILNFRLIAVTRNNKHTEELLRLGAAYVIDTSTAPLYETVMELTNGIGADAAIDSIGGPDGNELAFSLRPNGHFLTIGLLSGIQVNWAEIVTKAKVHANIFHLRHWNDEVSPYKWQETFRHLIRLVENEQLRFMKVHSTYELADVKAAVDVVQSAEKTKGKVFLTSYEGHHHHHH	not failed
MVSVSVVIATLKPRDEIEAIQCLEDQTFDDFEVIVCDKSPVTRARNEGIRQSSSDKIVFLDDDSRPQPGYLEKANDVLETEAAYAGRTIHPVDDVFARHFTAHYDWGGDPCYVDHFWGCNMGVHRDVFKTVGGWDEEMGWGHEEKELARRVRSEFDIRYDPELVVDHPYASSITDYWKKQYKLETKSPYYWSKCNVSRADQLKNIFCETFDPLNYVRITPVATMIEAGSTVAKTAGRLRGFLDHTHHEEGRGGVPDIDRPSQSPERSGLEHHHHHH	failed
MKLINTTWTHQELVNNQLDNTDAFLVETYSAGNTDVVFTQAPKHYELLISNKHRAVKDNELEVIREFFLKRKIDKDIVLMDKLRTVHTDKLIEISFPTTV	not failed

— a protein production outcome set (Wang et al. 2014)
